Reference: patent US12337027B2, “Methods and compositions relating to lung repair” (THE CHILDREN'S MEDICAL CENTER CORPORATION, priority 2018, dated 2025)
Entries after “also recorded” stand apart in the source; their conditions may differ.

Key:
mice = assay: Exercise tolerance tests; assay type: in vivo
[1] = tested on: C57B16 mice following left pneumonectomy; assay: Compensatory lung growth after left pneumonectomy (lung volume by water displacement); assay type: in vivo; conditions: for lung growth: compensatory lung growth after pneumonectomy
Protocol: (§1) C57B16 mice were randomized to receive daily intraperitoneal injection of either saline or soluble fms-like tyrosine kinase 1 (sFlt1) at a dose of 20 mcg/kg following left pneumonectomy. On post-operative day 4, mice underwent pulmonary function studies and were subsequently euthanized for lung volume measurement. Lung volume was determined by water displacement method. […] This therapy can potentially improve lung growth and pulmonary functions in patients suffering from severe pulmonary hypoplasia.
(§2) sFlt1 was administered to mice according to the experimental design depicted in FIG. 6. […] The dose response to sFlt1 was investigated (FIG. 8) and, in mice, 20 mcg/kg sFlt1 was the optimal dosing regimen (FIG. 9).

liver and spleen = tested on: liver and spleen; design: species or system mice; conditions: mouse, in vivo
Protocol: LW/BW: liver weight/body weight, SW/BW: spleen weight/body weight.
as §1

[2] = tested on: mice after 70% partial hepatectomy; assay: Liver regeneration after 70% partial hepatectomy; assay type: in vivo; conditions: 10, 20, or 50 ug/kg daily intraperitoneal vs saline, POD 4
Protocol: Mice underwent 70% partial hepatectomy and were randomized to receive saline (control) or one of 3 doses of Flt1 (10, 20, or 50 ug/kg) via intraperitoneal injection. Treatment was performed daily and mice were euthanized on post-operative day (POD) 4 for organ harvest. Liver samples were weighed and normalized against body weight.

VEGF = VEGF levels after sFlt1 administration; assay type: in vivo, mice; conditions: FIG. 11
[3] = tested on: C57B16 mice following left pneumonectomy; assay: Pulmonary function studies after left pneumonectomy; assay type: in vivo
Protocol: as §1, §2

HIF-2α = HIF-2α levels after sFlt1 administration (incl. immunohistochemistry); assay type: in vivo, mice; conditions: FIG. 11, 12
Text: FIG. 12 depicts immunohistochemical measurements of HIF-2α levels.

[4] = sFlt1 20 mcg/kg daily intraperitoneal vs saline, post-operative day 4

Molecule	effect of HIF-2α inhibition on sFlt1 effect on exercise tolerance (mice; PT-2385 given with sFlt1, FIG. 16, 17)	effect of HIF-2α inhibition on sFlt1-induced lung growth ([1]; PT-2385 given with sFlt1, FIG. 15)	baseline activity in exercise tolerance tests (mice; FIG. 16)	organ mass of liver (LW/BW: liver weight/body weight) (liver and spleen)	organ mass of spleen (SW/BW: spleen weight/body weight) (liver and spleen)	liver weight normalized against body weight [2]	levels of VEGF (VEGF)	inspiratory capacity (IC/BW) [3, 4]	pulmonary compliance [3, 4]	pulmonary elastance [3, 4]	pulmonary mechanics ([3]; sFlt1 at 20 mcg/kg, FIG. 10)	levels of HIF-2α (HIF-2α)	lung growth [1]	lung growth ([1]; listed as soluble VEGF receptor)	optimal dosing regimen (dose response) ([1]; in mice, FIG. 9)	lung volume (LV/BW: lung volume/body weight) [1, 4]
CS(=O)(=O)c1ccc(Oc2cc(F)cc(C#N)c2)c2c1[C@H](O)C(F)(F)C2 [PT-2385, reference compound]	blunt the effects of sFlt1	blunt the effects of sFlt1														
sFlt1: soluble variant of the VEGF receptor encoded by the Flt1 gene (protein, listed as Homo sapiens) MVSYWDTGVLLCALLSCLLLTGSSSGSKLKDPELSLKGTQHIMQAGQTLHLQCRGEAAHKWSLPEMVSKESERLSITKSACGRNGKQFCSTLTLNTAQANHTGFYSCKYLAVPTSKKKETESAIYIFISDTGRPFVEMYSEIPEIIHMTEGRELVIPCRVTSPNITVTLKKFPLDTLIPDGKRIIWDSRKGFIISNATYKEIGLLTCEATVNGHLYKTNYLTHRQTNTIIDVQISTPRPVKLLRGHTLVLNCTATTPLNTRVQMTWSYPDEKNKRASVRRRIDQSNSHANIFYSVLTIDKMQNKDKGLYTCRVRSGPSFKSVNTSVHIYDKAFITVKHRKQQVLETVAGKRSYRLSMKVKAFPSPEVVWLKDGLPATEKSARYLTRGYSLIIKDVTEEDAGNYTILLSIKQSNVFKNLTATLIVNVKPQIYEKAVSSFPDPALYPLGSRQILTCTAYGIPQPTIKWFWHPCNHNHSEARCDFCSNNEESFILDADSNMGNRIESITQRMAIIEGKNKMASTLVVADSRISGIYICIASNKVGTVGRNISFYITDVPNGFHVNLEKMPTEGEDLKLSCTVNKFLYRDVTWILLRTVNNRTMHYSISKQKMAITKEHSITLNLTIMNVSLQDSGTYACRARNVYTGEEILQKKEITIRGEHCNKKAVFSRISKFKSTRNDCTTQSNVKH			increased baseline activity	does not change	does not change	no difference in liver weight	unexpectedly increases	significantly higher; also recorded: improve; also recorded: increases inspiratory capacity	improves	improves	improved pulmonary mechanics	unexpectedly increases	increases lung growth; also recorded: accelerated lung growth	accelerated compensatory lung growth	0.02 mg/kg	significantly higher lung volume; also recorded: increases lung volume
